Data taken from PMC4467374.
No end group written: not given here. Me3 = tri-methyl on lysine side chain

Legend:
[1] = biological target: tandem tudor domain (TTD) of UHRF1; test: AlphaScreen or HTRF
[2] = biological target: tandem tudor domain (TTD) of UHRF1; test: fluorescence polarisation

IC50 [1] [µM] | IC50 [2] [µM] | Binder
6 | 12 | ARTKQTARKSTGEW (here or on the partner: trimethyl-lysine at K9) [H3K9me3 competition peptide (high affinity competitor)]
95 | – | ARTK(Me3)QTARKSTGEW [H3K4me3 competition peptide (low affinity competitor)]
